US20190309059A1 (SHANGHAI PHARMAEXPLORER, published 2019)
Values joined by “and” are separate entries in the source; they are usually repeats but may differ in a detail not shown here. Equal values may be shown once.

T1: mouse IL-13 (purchased from sino biological) (mouse, UniProt P20109 19-131)
T1 chain: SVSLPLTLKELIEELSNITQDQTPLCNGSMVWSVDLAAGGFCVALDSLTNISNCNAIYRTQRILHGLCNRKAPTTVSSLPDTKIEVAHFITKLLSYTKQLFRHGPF

B1: 28A2E11 (lead antibody, mouse hybridoma) (antibody, V domains shown)
VH: EVQLQQSGAELVKPGASVKLSCTASGFNIKDYYMHWVKQRTEQGLEWIGRIDPEDGETKYAPKFHDKATLTADTSSNTAYLQFSSLASEDTAVYYCTRYDYYGPFAYWGQGTLVTVSA
VL: QAVVTQESVLTTSPGETVTLTCRSSTGAVTTSNYANWVQEKPDHLFTGLIGGTNNRAPGVPARFSGSLIGDKAALTITGAQTEDEAIYFCALWYINHFIFGSGTKVTVL
notes: Mouse monoclonal antibody purified from hybridoma supernatant on Protein G
B2: c28A2E11 (mouse-human chimeric IL-13 antibody) (antibody, V domains shown)
VH: B1 VH
VL: B1 VL
B3: 29D9H8 (lead antibody, mouse hybridoma) (antibody, V domains shown)
VH: QVQLQQSGAELVRPGASVTLSCKASGYTFTDYEMHWVKQTPVHGLEWIGGIDPETGGTASNQKFKGKAILTADKSSSTAYMELRSLTSEDSAVYYCTSGDYFGGGPFAYWGQGTLVTVSA
VL: DIKMTQSPSSMYASLGERVTITCKASQDINSYLSWFQQKPGKSPKTLIYRANRLVDGVPSRFSGSGSGQDYSLTISSLDYEDMGIYYCLQYDEFPYTFGGGTKLEIK
notes: as for B1
B4: c29D9H8 (mouse-human chimeric IL-13 antibody) (antibody, V domains shown)
VH: B3 VH
VL: B3 VL
B5: c35E2C3 (mouse-human chimeric IL-13 antibody) (antibody, V domains shown)
VH: EVQLQESGPGLAKPSQTLSLTCSVTGYSITSDYWNWIRKFPGNKLEYMGYISYNGNTYYNPSLKSQISITRDTSKNQLYLQLKSATTEDTATYYCARLAKWTWYFDIWGTGTTVTVSS
VL: DIQMNQSPSSLSASLGDTITITCHASQNINVWLSWYQQKPGSLPKLLIYKASDLHTGVPSRFSGSGSGTGFTLTISSLQPEDIATYYCQQGQSYPYTFGGGTKLEIK

Key:
[1] = target: cynomolgus IL-13 (purchased from sino biological) (cynomolgus) (UniProt Q0PW92); test: ELISA, cynomolgus IL-13; antibody at 0.11 nM
Sequence of cynomolgus IL-13 (purchased from sino biological) (cynomolgus) (Q0PW92 entry or part of it): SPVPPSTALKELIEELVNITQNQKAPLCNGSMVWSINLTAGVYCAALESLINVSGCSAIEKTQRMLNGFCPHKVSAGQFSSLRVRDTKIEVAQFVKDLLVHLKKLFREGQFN

[2] = target: his-labeled human IL-13R130Q variant (human) (UniProt P35225); test: ELISA, IL-13R130Q variant; antibody at 0.021 nM
Sequence of his-labeled human IL-13R130Q variant (human) (P35225 other isoform, or with tags, fused parts or gaps mutant): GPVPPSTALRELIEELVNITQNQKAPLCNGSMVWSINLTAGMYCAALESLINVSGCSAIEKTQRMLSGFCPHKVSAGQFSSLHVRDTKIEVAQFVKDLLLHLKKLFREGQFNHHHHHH

[3] = target: his-labeled human IL-13 (immunogen A) (human) (UniProt P35225); test: ELISA, biotin-immunogen A; antibody at 0.00 nM (8th dilution)
[4] = target: his-labeled human IL-13R130Q variant (human) (UniProt P35225); test: ELISA, IL-13R130Q variant; antibody at 0.004 nM
[5] = target: cynomolgus IL-13 (purchased from sino biological) (cynomolgus) (UniProt Q0PW92); test: ELISA, cynomolgus IL-13; antibody at 66.7 nM
[6] = target: cynomolgus IL-13 (purchased from sino biological) (cynomolgus) (UniProt Q0PW92); test: ELISA, cynomolgus IL-13; antibody at 13.3 nM
[7] = target: cynomolgus IL-13 (purchased from sino biological) (cynomolgus) (UniProt Q0PW92); test: ELISA, cynomolgus IL-13; antibody at 0.107 nM
[8] = target: his-labeled human IL-13R130Q variant (human) (UniProt P35225); test: ELISA, IL-13R130Q variant; antibody at 0.11 nM
[9] = target: his-labeled human IL-13 (immunogen A) (human) (UniProt P35225); test: ELISA, biotin-immunogen A; antibody at 0.02 nM
[10] = target: his-labeled human IL-13R130Q variant (human) (UniProt P35225); test: ELISA, IL-13R130Q variant; antibody at 13.33 nM
[11] = target: his-labeled human IL-13 (immunogen A) (human) (UniProt P35225); test: ELISA, biotin-immunogen A; antibody at 0.001 nM
[12] = target: his-labeled human IL-13 (immunogen A) (human) (UniProt P35225); test: ELISA, biotin-immunogen A; antibody at 0.00 nM (as printed, 7th dilution)
[13] = target: his-labeled human IL-13 (immunogen A) (human) (UniProt P35225); test: ELISA, biotin-immunogen A; antibody at 0.11 nM
[14] = target: his-labeled human IL-13 (immunogen A) (human) (UniProt P35225); test: ELISA, biotin-immunogen A; antibody at 0.00 nM (6th dilution)
[15] = target: cynomolgus IL-13 (purchased from sino biological) (cynomolgus) (UniProt Q0PW92); test: ELISA, cynomolgus IL-13; antibody at 66.67 nM
[16] = target: T1, mouse IL-13 (purchased from sino …); test: ELISA, mouse IL-13; antibody at 0.001 nM
[17] = target: T1, mouse IL-13 (purchased from sino …); test: ELISA, mouse IL-13; antibody at 13.33 nM
[18] = target: T1, mouse IL-13 (purchased from sino …); test: ELISA, mouse IL-13; antibody at 2.67 nM
[19] = target: his-labeled human IL-13 (immunogen A) (human) (UniProt P35225); test: ELISA, biotin-immunogen A; antibody at 13.33 nM
[20] = target: T1, mouse IL-13 (purchased from sino …); test: ELISA, mouse IL-13; antibody at 0.000 nM
[21] = target: T1, mouse IL-13 (purchased from sino …); test: ELISA, mouse IL-13; antibody at 0.11 nM
[22] = target: his-labeled human IL-13 (immunogen A) (human) (UniProt P35225); test: ELISA, biotin-immunogen A; antibody at 0.004 nM
[23] = target: his-labeled human IL-13 (immunogen A) (human) (UniProt P35225); test: ELISA: biotin-labeled immunogen A on streptavidin plate, antibody titrated, HRP secondary antibody, OD450
[24] = target: his-labeled human IL-13 (immunogen A) (human) (UniProt P35225); test: FACS blocking assay: antibody titrated with biotin-labeled immunogen A (30 ng/mL); blocked partner IL-13Ra1/IL-4Ra on HEK293 clone 4C1; Alexa 488 streptavidin
[25] = target: his-labeled human IL-13 (immunogen A) (human) (UniProt P35225); test: FACS blocking assay: antibody titrated with biotin-labeled immunogen A (20 ng/mL); blocked partner IL-13Ra2 on HEK293 clone 1A1; Alexa 488 streptavidin
[26] = target: T1, mouse IL-13 (purchased from sino …); test: ELISA, mouse IL-13; antibody at 0.53 nM
[27] = target: his-labeled human IL-13 (immunogen A) (human) (UniProt P35225); test: ELISA, biotin-immunogen A; antibody at 0.021 nM
[28] = target: T1, mouse IL-13 (purchased from sino …); test: ELISA, mouse IL-13; antibody at 0.021 nM
[29] = target: his-labeled human IL-13 (immunogen A) (human) (UniProt P35225); test: SPR (Biacore)
[30] = target: cynomolgus IL-13 (purchased from sino biological) (cynomolgus) (UniProt Q0PW92); test: ELISA, cynomolgus IL-13; antibody at 333.3 nM
[31] = target: his-labeled human IL-13R130Q variant (human) (UniProt P35225); test: ELISA: IL-13R130Q variant on the plate, antibody titrated, HRP secondary antibody, OD450
[32] = target: his-labeled human IL-13R130Q variant (human) (UniProt P35225); test: ELISA, IL-13R130Q variant; antibody at 66.67 nM

| Molecule | OD450 nm [1] | OD450 nm [2] | OD450 nm [3] | OD450 nm [4] | OD450 nm [5] | OD450 nm [6] | OD450 nm [7] | OD450 nm [8] | OD450 nm [9] | OD450 nm [10] | OD450 nm [11] | OD450 nm [12] | OD450 nm [13] | OD450 nm [14] | OD450 nm [19] | EC50 (read off the curve) [23] | IC50 (read off the curve) [24] | IC50 (read off the curve) [25] | Kd [29] | EC50 (read off the curve) [31] | also measured |
| --- | --- | --- | --- | --- | --- | --- | --- | --- | --- | --- | --- | --- | --- | --- | --- | --- | --- | --- | --- | --- | --- |
| IgG control (mouse IgG) (antibody) | 0.07 | 0.06 | 0.07 | 0.07 | 0.1 | 0.1 | 0.059 | 0.06 | 0.07 | 0.09 | 0.05 | 0.07 | 0.07 and 0.05 | 0.08 |  |  |  |  |  |  |  |
| B1 | 0.35 |  |  |  |  |  |  |  |  |  | 0.07 |  | 0.74 |  | 1.74 | 0.2 nM | 0.7 nM | 0.6 nM |  |  | OD450 nm [15]: 1.99; OD450 nm [16]: 0.06; OD450 nm [17]: 0.08; OD450 nm [18]: 0.08; OD450 nm [20]: 0.07; OD450 nm [21]: 0.07; OD450 nm [22]: 0.1; OD450 nm [26]: 0.07; OD450 nm [27]: 0.28; OD450 nm [28]: 0.08 |
| B2 |  |  | 0.06 |  | 3.4 | 2.4 | 0.183 |  | 0.25 |  |  | 0.07 | 0.83 | 0.1 | 2.71 | 0.2 nM | 1 nM | 1 nM | < 90 nM | 0.3 nM | OD450 nm [30]: 3.9 |
| B3 | 1.24 |  |  |  |  |  |  |  |  |  | 0.07 |  | 0.85 |  | 1.6 | 0.1 nM | 0.3 nM | 0.2 nM |  |  | OD450 nm [15]: 2.52; OD450 nm [16]: 0.07; OD450 nm [17]: 0.09; OD450 nm [18]: 0.07; OD450 nm [20]: 0.07; OD450 nm [21]: 0.07; OD450 nm [22]: 0.12; OD450 nm [26]: 0.06; OD450 nm [27]: 0.34; OD450 nm [28]: 0.06 |
| B4 |  | 0.4 |  | 0.2 | 3.6 | 3.5 | 1.23 | 1.23 |  | 2.99 |  |  |  |  |  |  | 0.5 nM | 0.2 nM | < 90 nM | 0.2 nM | OD450 nm [30]: 3.7; OD450 nm [32]: 3.06 |
| B5 |  | 0.28 | 0.06 | 0.13 | 3.8 | 3.1 | 0.181 | 0.97 | 0.18 | 3.3 |  | 0.07 | 0.59 | 0.09 | 2.59 | 0.4 nM | 0.5 nM | 0.3 nM | < 90 nM | 0.3 nM | OD450 nm [32]: 3.4 |
